Results as given in patent US20210332350A1.

Assays:
Experiment in all cases: cell-based or functional assay
[1] = biological target: Corynebacterium glutamicum SSB (Corynebacterium glutamicum)
[2] = biological target: Lactobacillus reuteri SSB (Lactobacillus reuteri)
[3] = biological target: E. coli single-strand DNA-binding protein (SSB) (Escherichia coli) (UniProt P0AGE0)
Chain of UniProt P0AGE0 (P0AGE0 2-178 limits assumed): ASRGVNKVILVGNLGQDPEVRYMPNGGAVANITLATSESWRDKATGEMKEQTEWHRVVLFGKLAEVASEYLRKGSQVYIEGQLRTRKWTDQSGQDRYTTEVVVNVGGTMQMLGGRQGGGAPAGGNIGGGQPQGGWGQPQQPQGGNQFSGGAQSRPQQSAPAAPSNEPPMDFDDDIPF

Substance	Allele Recombination (AR) Frequency in E. coli, bi-cistronic co-expression [1]	increase of AR frequency over the SSAP alone [1]	Allele Recombination (AR) Frequency in E. coli, bi-cistronic co-expression [2]	increase of recombination frequency over the SSAP alone [2]	Allele Recombination (AR) Frequency in E. coli, bi-cistronic co-expression [3]
Corynebacterium glutamicum recT	0.245	10 fold	0.044	–	–
Lactobacillus reuteri recT1	0.000496	–	0.003	10 fold	–
λ β expressed from pARC8 in E. coli (no tag stated) (from UniProt P03698 1-261)	–	–	–	–	0.09
